Measured values as given in US20230071765A1, “COMPOSITIONS HAVING THIOREDOXIN ACTIVITY AND RELATED METHODS” (ORPRO THERAPEUTICS, INC., priority 2020, published 2023).

Target: human insulin (disulfide-bonded heterodimer) (human) (UniProt P01308)
Assay: cell-based or functional assay

Sequence of human insulin (disulfide-bonded heterodimer) (human) (P01308 90-110 limits assumed, chain 1 of 2): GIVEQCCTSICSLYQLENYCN
Sequence of human insulin (disulfide-bonded heterodimer) (human) (P01308 25-54 limits assumed, chain 2 of 2): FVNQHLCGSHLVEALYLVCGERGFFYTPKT

Relative % insulin reduction (ORP100S Ox 0 : Red 100) (% relative to maximum) | Relative % insulin reduction (ORP100S mixture Ox 25 : Red 75) (% relative to maximum) | Relative % insulin reduction (ORP100S mixture Ox 50 : Red 50) (% relative to maximum) | Relative % insulin reduction (ORP100S mixture Ox 75 : Red 25) (% relative to maximum) | maximum insulin heterodimer reaction with fully reduced material (RP-HPLC insulin reduction assay) | Relative % insulin reduction (ORP100S Ox 100 : Red 0) (% relative to maximum) | Binder
100 | 72 | 51 | 36 | 45% |  | ORP100S (fully monocysteinic human thioredoxin-1, reduced form) (enzyme) VKQIESKTAFQEALDAAGDKLVVVDFSATWCGPSKMIKPFFHSLSEKYSNVIFLEVDVDDSQDVASESEVKSMPTFQFFKKGQKVGEFSGANKEKLEATINELV
 |  |  |  |  | 8 | oxidized ORP100S treated with iodacetamide (IA) (enzyme, Cys32 oxidized / treated with iodoacetamide, as printed: 'oxidized ORP100S treated with iodacetamide (IA)') VKQIESKTAFQEALDAAGDKLVVVDFSATWCGPSKMIKPFFHSLSEKYSNVIFLEVDVDDSQDVASESEVKSMPTFQFFKKGQKVGEFSGANKEKLEATINELV
